Source: patent US20160304578A1 (XYPHOS BIOSCIENCES, published 2016)
Residue numbers refer to the chain shown, from its start. In names and notes the source's numbering stands.

T1: human NKG2D-Fc (human, UniProt P26718 78-216, limits assumed)
T1 construct: not shown: Fc part
T1 sequence (looked up): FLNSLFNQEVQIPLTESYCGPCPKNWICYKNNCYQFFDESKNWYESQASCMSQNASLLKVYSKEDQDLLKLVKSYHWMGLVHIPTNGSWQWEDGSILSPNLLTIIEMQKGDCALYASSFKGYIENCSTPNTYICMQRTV

T2: NKG2D on the human NK cell line NKL (human, UniProt P26718 1-216)
T2 sequence (looked up): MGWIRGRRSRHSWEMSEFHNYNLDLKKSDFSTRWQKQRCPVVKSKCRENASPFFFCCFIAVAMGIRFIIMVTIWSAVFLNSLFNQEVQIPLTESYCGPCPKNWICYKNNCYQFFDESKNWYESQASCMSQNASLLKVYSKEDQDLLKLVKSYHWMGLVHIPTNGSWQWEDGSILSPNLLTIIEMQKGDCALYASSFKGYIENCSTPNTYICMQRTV

B1: K165S (designed binder)
α1-α2 domain displayed on M13 phage (pIII fusion): AAEPHSLWYNFTIIHLPRHGQQWCEVQSQVDQKNFLSYDCGSDKVLSMGHLEEQLYATDAWGKQLEMLREVGQRLRLELADTELEDFTPSGPLTLQVRMSCESEADGYIRGSWQFSFDGRKFLLFDSNNRKWTVVHAGARRMKEKWEKDSGLTTFFKMVSMRDCSSWLRDFLMHRKKRLEPTAPPMV
B2: R162G (designed binder)
α1-α2 domain displayed on M13 phage (pIII fusion): B1 α1-α2 domain displayed on M13 phage (pIII fusion) with S103C, R162G, S165K
B3: K165P (designed binder)
α1-α2 domain displayed on M13 phage (pIII fusion): B1 α1-α2 domain displayed on M13 phage (pIII fusion) with S165P
B4: R80L (designed binder)
α1-α2 domain displayed on M13 phage (pIII fusion): AAEPHSLSYDITVIPKFRPGPRWCAVQGQVDEKTFLHYDCGNKTVTPVSPLGKKLNVTTAWKAQNPVLREVVDILTEQLLDIQLENYTPKEPLTLQARMSCEQKAEGHSSGSWQFSFDGQIFLLFDSEKRMWTTVHPGARKMKEKWENDKVVAMSFHYFSMGDCIGWLEDFLMGMDSTLEPSAGAPPMV
B5: V152L (designed binder)
α1-α2 domain displayed on M13 phage (pIII fusion): B4 α1-α2 domain displayed on M13 phage (pIII fusion) with L80R, V152L
B6: V151D (designed binder)
α1-α2 domain displayed on M13 phage (pIII fusion): B4 α1-α2 domain displayed on M13 phage (pIII fusion) with S8C, L80R, V151D
B7: biotinylated human NKG2D (receptor, UniProt P26718 78-216, looked up)
chain: T1 sequence (looked up)
modifications: biotinylated (site not stated)
notes: also called recombinant biotinylated NKG2D
B8: WT α1-α2 soluble MICA protein (ligand, UniProt Q29983 24-299, looked up)
chain: EPHSLRYNLTVLSWDGSVQSGFLTEVHLDGQPFLRCDRQKCRAKPQGQWAEDVLGNKTWDRETRDLTGNGKDLRMTLAHIKDQKEGLHSLQEIRVCEIHEDNSTRSSQHFYYDGELFLSQNLETKEWTMPQSSRAQTLAMNVRNFLKEDAMKTKTHYHAMHADCLQELRRYLKSGVVLRRTVPPMVNVTRSEASEGNITVTCRASGFYPWNITLSWRQDGVSLSHDTQQWGDVLPDGNGTYQTWVATRICQGEEQRFTCYMEHSGNHSTHPVPSGK
notes: also called WT MICA; WT NKG2DL
B9: α1-α2 variant 16 (designed binder)
chain: EPHSLRYNLTVLSWDGSVQSGFLTEVHLDGQPFLRCDRQKCRAKPQGQWAEDVLGNKTWDRETRDLTGWGKDLRMTLAHIKDQKEGLHSLQEIRVCEIHEDNSTRSSQHFYYDGELFLSQNLETLEWTMPQSSRAQTLAMNVRNFLKEDAMETDTHYHAMRADCLQELRRYLKSGVVLRRTVPPMVQVTRSEASGGSGDRVTITCRASQDVSTAVAWYQQKPGKAPKLLIYSASFLYSGVPSRFSGSGSGTDFTLTISSLQPEDFATYYCQQSYTTPPTFGQGTKVEIKGGSSRSSSSGGGGSGGGGEVQLVESGGGLVQPGGSLRLSCAASGFTFTSTGISWVRQAPGKGLEWVGRIYPTNGSTNYADSVKGRFTISADTSKNTAYLQMNSLRAEDTAVYYCARTYGIYDLYVDYTEYVMDYWGQGTLVTVSSGGSSRSSSSGGGGSGGGGDIQMTQSPSSLSASGGSGQITVTCRASGFYPWNITLSWRQDGVSLSHDTQQWGDVLPDGQGTYQTWVATRISQGEEQRFTCYMEHSGQHSTHPVPSGKGSHHHHHH
B10: α1-α2 variant 18 (designed binder)
chain: B9 chain with S20P, G68L
B11: α1-α2 variant 20 (designed binder)
chain: B9 chain with G68A, E152Q, H158R, R161H, Q166F
notes: Expressed in HEK293 (Expi293)
B12: α1-α2 variant 48 (designed binder)
chain: B9 chain with E152A, H158I, Q166A
notes: Expressed in HEK293 (Expi293)
B13: α1-α2 variant 25 (designed binder)
chain: B9 chain with Q166S
notes: Expressed in HEK293 (Expi293)
B14: α1-α2 variant 17 (designed binder)
chain: B9 chain with G68L

How the values were obtained:
[1] = biological target: T1, human NKG2D-Fc; experiment: phage ELISA: ULBP3 variant displayed on phage titrated against NKG2D
[2] = biological target: T1, human NKG2D-Fc; experiment: phage ELISA: ULBP2 variant displayed on phage titrated against NKG2D
[3] = biological target: B8; experiment: biolayer interferometry (Octet), Kd = kOFF/kON
[4] = biological target: B8; experiment: biolayer interferometry (Octet), surface-coated biotinylated human NKG2D, 100 nM protein
[5] = biological target: T1, human NKG2D-Fc; experiment: competition ELISA: inhibits 2 nM human NKG2D-Fc binding to plate-coated WT sMICA
Source text: Using a competitive binding ELISA, we determined the relative NKG2D binding affinities of the 4 modified α1-α2 variants.

[6] = biological target: T2, NKG2D on the human NK cell line NKL; experiment: cell-based or functional assay
[7] = biological target: B7; experiment: biolayer interferometry (Octet), Kd = kOFF/kON
Procedure: (§1) In order to characterize the NKG2D binding affinities, both the on-rates and off-rates for the three α1-α2 variant NKG2DLs binding to surface-coated biotinylated human NKG2D were measured using biolayer interferometry (Octet). Binding titrations were performed for each protein using a titration range of 1-100 nM, and the kinetic data were fitted to obtain on-rates, off-rates, and equilibrium binding constants.

[8] = biological target: B7; experiment: biolayer interferometry (Octet), surface-coated biotinylated human NKG2D, titration 1-100 nM
Procedure: as §1

[9] = biological target: B7; experiment: biolayer interferometry (Octet), biotinylated human NKG2D; the reference is not named
Procedure: as §1

[10] = biological target: B7; experiment: biolayer interferometry (Octet), biotinylated human NKG2D; Table 5 compared with Table 3
Procedure: as §1

B1
EC50 (read off the curve) [1]: ~0.002 OD268 (phage)

B2
EC50 (read off the curve) [1]: ~0.005 OD268 (phage)

B3
EC50 (read off the curve) [1]: ~0.004 OD268 (phage)

B4
EC50 (read off the curve) [2]: ~0.01 OD268 (phage)

B5
EC50 (read off the curve) [2]: ~0.01 OD268 (phage)

B6
EC50 (read off the curve) [2]: ~0.01 OD268 (phage)

B7
Kd [3]: 13.8 nM | koff [4]: 0.0018 s⁻¹ | kon [4]: 130000 M⁻¹ s⁻¹

B8
IC50 [5]: 19.4 nM

B9
killing of FGFR3-expressing P815 target cells by NKL cells (calcein-release assay), fold over WT at 0.78 nM [6]: ~15 fold

B10
killing of FGFR3-expressing P815 target cells by NKL cells (calcein-release assay), fold over WT at 0.78 nM [6]: ~15 fold

B11
Kd [7]: 0.083 nM | koff [8]: 3e-05 s⁻¹ | kon [8]: 360000 M⁻¹ s⁻¹

B12
Kd [7]: 15 nM | fold reduction in NKG2D binding affinity [9]: 250 fold | koff [8]: 0.003 s⁻¹ | kon [8]: 200000 M⁻¹ s⁻¹

B13
EC50 for cell killing, fold improvement over variant 16 [6]: ~5 fold | killing of FGFR3-expressing P815 target cells by NKL cells (calcein-release assay), fold over variant 16 at 0.2 nM [6]: ~3 fold | Kd [7]: 0.062 nM | fold enhancement in equilibrium binding affinity against variant 16 [10]: 8 fold | koff [8]: 2.9e-05 s⁻¹ | kon [8]: 470000 M⁻¹ s⁻¹

B14
killing of FGFR3-expressing P815 target cells by NKL cells (calcein-release assay), fold over WT at 0.78 nM [6]: ~15 fold
